According to US20210171654A1 (FORTY SEVEN, published 2021):
Values joined by “and” are separate entries in the source; they are usually repeats but may differ in a detail not shown here. Identical values can stand only once.

Experiments:
[1] = molecular target: T1, human SIRP-alpha variant 1 (V1) on monocytes and macrophages of V1 homozygous donors (human, UniProt P78324 31-146); experiment: flow cytometry on monocytes; blocking of AF488-conjugated human CD47-Fc binding
T1 construct: the whole native protein stood on the cells; also called SIRPa V1
T1 sequence (P78324 31-146, change not shown): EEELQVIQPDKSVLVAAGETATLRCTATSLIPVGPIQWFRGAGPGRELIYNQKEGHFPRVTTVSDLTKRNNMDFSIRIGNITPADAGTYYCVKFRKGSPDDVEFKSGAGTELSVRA
Experimental: (§1) Blocking human CD47 binding on monocytes isolated from human donors. Human peripheral blood mononuclear cells (PBMCs) were isolated from human blood using Ficoll. 5×10⁵ cells were incubated with 1 ug/ml of AF488-conjugated human CD47-Fc fusion protein in the absence or presence of increasing concentrations of hHu1H9-G1. Binding of CD47 on the cells was measured and analyzed by flow cytometry.

[2] = molecular target: T2, human SIRP-alpha variant 2 (V2) on monocytes and macrophages of V2 homozygous donors (human, UniProt Q5TFQ8 30-145); experiment: as above
T2 construct: the whole native protein stood on the cells; The definitions name GenBank CAA71403.1 for the V2 form (residues 30-504 mature); also called SIRPa V2
T2 sequence (Q5TFQ8 other isoform, or with tags, fused parts or gaps mutant): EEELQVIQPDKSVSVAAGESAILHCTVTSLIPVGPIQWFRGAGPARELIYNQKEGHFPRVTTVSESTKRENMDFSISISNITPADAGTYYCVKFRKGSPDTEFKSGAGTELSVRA
Experimental: as §1

[3] = molecular target: T3, human SIRP-alpha V1/V5 (heterozygous) on monocytes and macrophages of V1/V5 donors (human); experiment: as above
T3 construct: Not a complex: the two allelic forms carried together by the cells of heterozygous donors
T3 sequence (P78324 whole entry): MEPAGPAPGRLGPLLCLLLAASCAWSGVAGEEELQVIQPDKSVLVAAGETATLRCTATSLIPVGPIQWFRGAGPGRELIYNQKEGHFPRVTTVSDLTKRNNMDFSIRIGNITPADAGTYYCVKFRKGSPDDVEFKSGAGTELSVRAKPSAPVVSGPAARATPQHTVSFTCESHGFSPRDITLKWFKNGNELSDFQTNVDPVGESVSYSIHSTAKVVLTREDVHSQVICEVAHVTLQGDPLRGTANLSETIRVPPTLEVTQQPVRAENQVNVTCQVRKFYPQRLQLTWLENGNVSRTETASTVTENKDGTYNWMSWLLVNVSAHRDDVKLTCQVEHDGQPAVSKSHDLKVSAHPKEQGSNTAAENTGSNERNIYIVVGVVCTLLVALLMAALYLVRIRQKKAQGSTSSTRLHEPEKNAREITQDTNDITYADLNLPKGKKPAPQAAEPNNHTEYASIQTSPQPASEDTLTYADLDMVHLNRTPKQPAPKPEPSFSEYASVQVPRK
Experimental: as §1

[4] = molecular target: T4, human SIRPG-His fusion protein (human, UniProt Q9P1W8-2 29-327, limits assumed); experiment: ELISA, binding to human SIRPG-His fusion protein
T4 construct: also called SIRP gamma; not shown: His tag
T4 sequence (Q9P1W8 62-360 limits assumed): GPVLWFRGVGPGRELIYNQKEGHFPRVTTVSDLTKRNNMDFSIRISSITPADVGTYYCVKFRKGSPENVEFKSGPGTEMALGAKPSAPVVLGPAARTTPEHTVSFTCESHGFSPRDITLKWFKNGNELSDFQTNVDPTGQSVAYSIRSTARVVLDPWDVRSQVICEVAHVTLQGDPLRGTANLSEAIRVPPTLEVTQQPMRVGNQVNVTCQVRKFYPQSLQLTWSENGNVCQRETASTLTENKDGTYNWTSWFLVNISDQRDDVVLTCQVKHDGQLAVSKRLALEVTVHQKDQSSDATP

IC50 (read off the curve) [1] | IC50 (read off the curve) [2] | IC50 (read off the curve) [3] | binding result [4] | Binder
~8 µg/mL and ~4 µg/mL | ~20 µg/mL | ~3 µg/mL |  | Humanized 1H9 (antibody, human IgG1, kappa, N297A, V domains shown, also called Hu1H9-G1; humanized 1H9-G1) VH: QVQLVQSGAEVKKPGASVKVSCKASGYTFTSYWITWVKQAPGQGLEWIGDIYPGSGSTNHIEKFKSKATLTVDTSISTAYMELSRLRSDDTAVYYCATGYGSSYGYFDYWGQGTLVTVSS VL: DIQMTQSPSSLSASVGDRVTITCRASENIYSYLAWYQQKPGKAPKLLIYTAKTLAEGVPSRFSGSGSGTDFTLTISSLQPEDFATYYCQHQYGPPFTFGQGTKLEIKR
 |  |  | no binding (tested: about 3000 ng/mL) | 1H9 (parental mouse anti-human SIRPa monoclonal antibody) (antibody, V domains shown, Hybridoma-derived mouse antibody; also called mouse 1H9) VH: QVQLQQPGAERVKPGASVKMSCKASGYTFTSYWITWVKQRPGQGLEWIGDIYPGSGSTNHIEKFKSKATLTVDTSSNTAYMQLSRLTSEDSAVYYCATGYGSSYGYFDYWGQGTTLTVSS VL: DIQMTQSPASLSASVGETVTITCRASENIYSYLAWYQQKQGKSPQLLVYTAKTLAEGVPSRFSGSGSGTQFSLKINSLQPEDFGNYYCQHQYGPPFTFGSGTRLVIK
 |  |  | no binding (tested: about 3000 ng/mL) | 3C2 (parental mouse anti-human SIRPa monoclonal antibody) (antibody, V domains shown, Hybridoma-derived mouse antibody; also called mouse 3C2) VH: QVQLQQPGAELVRPGSSVKLSCKASGYTFTSYWMHWVKQRPIQGLEWIGNIDPSDSDTHYNQKFKDKATLTVDKSSSTAYMQLSSLTSEDSAVYYCARGYSKYYAMDYWGQGTSVTVSS VL: DVLMTQTPLSLSVSLGDQASISCRSSQSIVHSYGNTYLEWYLQKPGQSPKLLIYKVSNRFSGVPDRFSGSGSGTDFTLKISRVEAEDLGVYYCFQGSHVPYTFGGGTKLEIK
